Test results reported in US20200385463A1 (LANOVA MEDICINES, published 2020).

molecular target: Human claudin 18.2 (CLDN18.2), wild-type (human); experiment: cell-based or functional assay

| Binder | EC50 (pM), ADCC Reporter Bioassay (luciferase, Jurkat effector cells) [pM] |
| --- | --- |
| 4F11E2 -HC N55Q-LC S32A (antibody, V domains shown) VH: EVQLVESGGGLVQPGGSLRLSCAASGFTFSTFGMHWVRQAPGKGLEWVSYITSGQSPIYFTDTVKGRFTISRDNAKNSLYLQMNSLRAEDTAVYYCARSSYYGNSMDYWGQGTLVTVSS VL: DIVMTQSPDSLAVSLGERATINCRSSQSLLNAGNRKNYLTWYQQKPGQPPKLLIYWASTRESGVPDRFSGSGSGTDFTLTISSLQAEDVAVYYCQNAYSYPFTFGGGTKLEIK | 414 |
| 72C1B6A3 (HC WT/LC S32A) (antibody, V domains shown) VH: QVQLVQSGAEVKKPGASVKVSCKASGYTFTTYPIEWVRQAPGQRLEWMGNFHPYNDDTKYNEKFKGRVTITRDTSASTAYMELSSLRSEDTAVYYCARRAYGYPYAMDYWGQGTLVTVSS VL: DIVMTQSPDSLAVSLGERATINCKSSQSLLNAGNQKNYLTWYQQKPGQPPKLLIYRASSRESGVPDRFSGSGSGTDFTLTISSLQAEDVAVYYCQNDYIYPYTFGGGTKLEIK | 190 |
| 4F11E2 -HC N55Q-LC N31E (antibody, V domains shown) VH: EVQLVESGGGLVQPGGSLRLSCAASGFTFSTFGMHWVRQAPGKGLEWVSYITSGQSPIYFTDTVKGRFTISRDNAKNSLYLQMNSLRAEDTAVYYCARSSYYGNSMDYWGQGTLVTVSS VL: DIVMTQSPDSLAVSLGERATINCRSSQSLLESGNRKNYLTWYQQKPGQPPKLLIYWASTRESGVPDRFSGSGSGTDFTLTISSLQAEDVAVYYCQNAYSYPFTFGGGTKLEIK | 238 |
| 72C1B6A3-HC WT-LC N31E (antibody, V domains shown) VH: QVQLVQSGAEVKKPGASVKVSCKASGYTFTTYPIEWVRQAPGQRLEWMGNFHPYNDDTKYNEKFKGRVTITRDTSASTAYMELSSLRSEDTAVYYCARRAYGYPYAMDYWGQGTLVTVSS VL: DIVMTQSPDSLAVSLGERATINCKSSQSLLESGNQKNYLTWYQQKPGQPPKLLIYRASSRESGVPDRFSGSGSGTDFTLTISSLQAEDVAVYYCQNDYIYPYTFGGGTKLEIK | 1650 |
| 120B7B2-HC G57D&S104A-LC-N96E&N31E (antibody, V domains shown) VH: QVQLVQSGAEVKKPGASVKVSCKASGYTFTGYIIQWVRQAPGQRLEWMGFINPYNDDTKYNEQFKGRVTITRDTSASTAYMELSSLRSEDTAVYYCARAYFGNAFAYWGQGTLVTVSS VL: DIVMTQSPDSLAVSLGERATINCKSSQSLLESGNQKNYLTWYQQKPGQPPKLLIYWASTRESGVPDRFSGSGSGTDFTLTISSLQAEDVAVYYCQEGYYFPFTFGGGTKLEIK | 493 |
| 4F11E2 (HC N55E/LC S32A) (antibody, V domains shown) VH: EVQLVESGGGLVQPGGSLRLSCAASGFTFSTFGMHWVRQAPGKGLEWVSYITSGESPIYFTDTVKGRFTISRDNAKNSLYLQMNSLRAEDTAVYYCARSSYYGNSMDYWGQGTLVTVSS VL: DIVMTQSPDSLAVSLGERATINCRSSQSLLNAGNRKNYLTWYQQKPGQPPKLLIYWASTRESGVPDRFSGSGSGTDFTLTISSLQAEDVAVYYCQNAYSYPFTFGGGTKLEIK | 148 |
| 120B7B2 (HC G57D S104A/LC S32A G97A) (antibody, V domains shown) VH: QVQLVQSGAEVKKPGASVKVSCKASGYTFTGYIIQWVRQAPGQRLEWMGFINPYNDDTKYNEQFKGRVTITRDTSASTAYMELSSLRSEDTAVYYCARAYFGNAFAYWGQGTLVTVSS VL: DIVMTQSPDSLAVSLGERATINCKSSQSLLNAGNQKNYLTWYQQKPGQPPKLLIYWASTRESGVPDRFSGSGSGTDFTLTISSLQAEDVAVYYCQNAYYFPFTFGGGTKLEIK | 114 |

molecular target: Human claudin 18.2 (CLDN18.2), wild-type (human); experiment: cell-based or functional assay; remark: another data set of the same source

| Binder | EC50 (pM), ADCC Reporter Bioassay (luciferase; Jurkat effector cells with FcγRIIIa V158 and NFAT response element) [pM] |
| --- | --- |
| 12F1F4 chimeric antibody (antibody, V domains shown) VH: QVQLKESGPGLVAPSQSLSITCTVSGFSLINYGVSWVRQPPGKGLEWLGVIWGDGNTNYQSALRSRLSIRKDTSKSQVFLKLNSVHTDGTATYYCAKVGRGNAMDHWGQGISVIVSS VL: DIVMTQSPSSLTVTARERVSMTCKSSQSLFNSGNQRNYLTWYQQKPGQPPKLLIYWSSTRESGVPDRFTGSGSGTDFTLTISSVQAEDLAIYFCQNNYYYPFTFGSGTKLEIK | 36.8 |
| 120B7B2 chimeric antibody (antibody, V domains shown) VH: EVQLQQSGPELVKPGASVKMSCKASGYTFTGYIIQWMKQKPGLGLEWIGFINPYNDGTKYNEQFKGKATLTSDKSSNAAYMELSSLTSEDSAVYYCARAYFGNSFAYWGQGTLVTVSA VL: DIVMTQSPSSLTVTAGEKVTMSCKSSQSLLNSGNQKNYLTWYQQRPGQPPKLLMYWASTRESGVPDRFTGSGSGTDFTLTISSGQAEDLAIYFCQNGYYFPFTFGSGTKLETK | 5.81 |
| 72C1B6A3 chimeric antibody (antibody, V domains shown) VH: QVQLQQSGGELVKPGASVKMSCKAFGYTFTTYPIEWMKQNHGKSLEWIGNFHPYNDDTKYNEKFKGKAKLTVEKSSSTVYLEVSRLTSDDSAVYYCARRAYGYPYAMDYWGQGTSVTVSS VL: DIVMTQSPSSLTVTAGEKVTMSCKSSQSLLNSGNQKNYLTWYQQRPGQPPKLLIYRASSRESGVPVRFTGSGSGTDFTLTISSVQAEDLAVYYCQNDYIYPYTFGGGTKLEMN | 46.3 |
| 4F11E2 chimeric antibody (antibody, V domains shown) VH: DVQLVESGGGLVQPGGSRKLSCAASGFTFSTFGMHWVRQAPEKGLEWVAYITSGNSPIYFTDTVKGRFTISRDNPKNTLFLQMTSLGSEDTAVYYCARSSYYGNSMDYWGQGTSVTVSS VL: DIVMTQSPSSLTVTAGEKVTLTCRSSQSLLNSGNRKNYLTWYQQIPGQPPKLLIYWASTRESGVPDRFTGSGSGTYFTLTISSVQAEDLAVYYCQNAYSYPFTFGSGTKLEKK | 22.2 |
| 103F6D3 chimeric antibody (antibody, V domains shown) VH: QVQLQQSGAELARPGASVKMSCKASGYTFPTYSIHWLKQGPGQGLEWIGYINPNTIYTNYNQKFKYKTTLTADKSSSTAYIQLSSLTSDDSAVYYCAREGYGRGNAMDYWGQGTSVTVSS VL: DIVMTQSPSSQTVTAGEKVTLSCRSSQSLLNGGNQKNYLTWYQQKPGQPPKLLIYWASTRESGVPDRFTGSGSGTYFTFTISSVQAEDLAVYYCQNAYFYPFTFGAGTKLELK | 79.5 |
| 64G11B4 chimeric antibody (antibody, V domains shown) VH: QVQLHQSGTELVRPGTSVKVSCKASGYAFTNYLLEWVKQRPGQGLEWIGEINPGNGGSNYNEKFKGKATLTADKSSSTAYMQLSSLTSVDSAVYFCARIYYGNSFAYWGQGTLVTVSA VL: DIVMTQSPSSLTVTAGEKVTMNCKSSQSLLNSGNQRNYLTWYQQKPGQPPKLLIYWASTRESGVPDRFTGSGSGTDFTLTISSVQADDLAVYYCQNDYFYPFTFGAGTNLELK | 126 |
| 78E8G9G6 chimeric antibody (antibody, V domains shown) VH: QVQLKESGPGLVAPSQSLSITCTVSGFSLISYGVHWVRQPPGKGLEWLGVIWAGGRTNYNSALMSRLSISKDNSKSQVFLKMNSLQTYDTAMYYCARDRYGGNSLDYWGQGTSVTVSS VL: DIVMTQSPSSLTVTAGEKVTMNCRSIQSLLNSGNQKNYLSWYQQKPGQPPKLLIYWASTRESGVPDRFTGSGSGTDFTLTIRSVLDEDLAVYYCQNSYSYPFTFGSGTKLEMK | 15.9 |
